Assay [1] deals with T1, CH1-CL domain forming a non-native three-dimensional structure (Homo sapiens, UniProt P01834+P01857).
T1 construct: made in house; host or cells: Escherichia coli BL21(DE3)
The assay is described as follows: SPR of synthetic peptides on immobilized acid-treated CH1-CL domain. It is filed as binding. The following applies: for Non-native CH1-CL domain (whether affinity was present or not): SPR Biacore T100, peptides 4-1 μM (FIG. 5), 50-1.6 μM (FIG. 6), 64-2 μM (FIG. 7); for affinity / binding response compared to AF.ab9: SPR, non-native CH1-CL domain immobilized, FIGS. 6 and 7. From the text: Here, the AF.ab9 body is a 16-residue polypeptide consisting of the 8-residue linker region and the 8-residue microprotein chignolin, and the AF.ab9 arm is a 10-residue polypeptide consisting of a region selected from the random amino acid sequences. The preparation of the polypeptides was entrusted to GL Biochem (Shanghai). […] The measurement conditions were in accordance with those in the paragraph 3).
The CH1-CL domain forming a non-native three-dimensional structure prepared by the same method as in the paragraph 3) was immobilized on a sensor chip CM5 (GE Healthcare) by amine coupling, and the binding thereof to AF.ab31, AF.ab9, and alanine substitution products was measured with Biacore T100 (FIGS. 6 and 7, Table 3).
(SPR reads the build-up and loss of mass on a sensor chip optically.)

The next assay deals with Fc region. Put plainly: SPR of Fc region (native or acid-treated) on immobilized AF.ab9. It is filed as binding, human. As to the method:
(§1) Preparation of the synthesized polypeptide was entrusted to GL Biochem (Shanghai). AF.ab9 was dissolved in a boric acid buffer solution (10 mM Borate-Na, 1 M NaCl, pH 8.5) and was immobilized on a sensor chip CM5 (GE Healthcare) by amine coupling.
(§2) Subsequently, human monoclonal IgG, Fab region, and Fc region having a native three-dimensional structure and a non-native three-dimensional structure were prepared. The Fab region and Fc region were prepared by subjecting human monoclonal IgG to papain digestion with Pierce (registered trademark) Fab Preparation Kit (Thermo Fisher Scientific Inc.) and then to purification by affinity chromatography using MabSelect SuRe (GE Healthcare), anion exchange chromatography using HiTrap DEAE (GE Healthcare), and gel filtration chromatography using Superdex 200 (GE Healthcare). The IgG, Fab region, and Fc region were each diluted to 5 μM and dialyzed against an acid buffer solution (50 mM NaH2PO4, 100 mM NaCl, pH 2.0) for 12 hours for accelerating acid denaturation and dialyzed against an HBS-T buffer solution for neutralization.

For the next assay, the system named is human monoclonal IgG. The assay is described as follows: SPR of IgG (native or acid-treated) on immobilized AF.ab9. It is filed as binding. As to the method: as §1, §2
Subsequently, an example of evaluating the affinity of AF.ab9 for IgG treated with buffer solutions having different degrees of acidity will be described. IgG was dissolved in an HBS buffer solution (10 mM HEPES, 150 mM NaCl, pH 7.4) at a concentration of 5 μM. The acidity of a sodium phosphate buffer solution (50 mM NaH2PO4, 100 mM NaCl) as an acid buffer solution was adjusted to three degrees of pH 2.0, pH 3.0, and pH 4.0. An antibody was dialyzed against each of the buffer solutions for 12 hours and was then dialyzed against an HBS-T buffer solution for neutralization. The affinity of each of the resulting acid-treated IgG for AF.ab9 was measured by SPR (FIG. 4, Table 2). The SPR test was conducted in accordance with the conditions described above in this paragraph. […] Regarding the acid denaturation of the CH1-CL domain, it has been reported as the results of analysis by spectroscopic methods such as CD spectrum and fluorescence spectrum that a clear change in the three-dimensional structure of the CH1-CL domain occurs between pH 4.0 and pH 3.0 (Non Patent Literature 32).

The subject of the next assay is Fab region. Put plainly: SPR of Fab region (native or acid-treated) on immobilized AF.ab9. It is filed as binding, human. On the procedure: as §1, §2

“Also recorded” adds a separate entry of the source.

Regarding “PNSGGGGSYDPETGTWAQEIRLILNW [AF.ab9 P17A]”, in assay [1], the “Non-native CH1-CL domain (whether affinity was present or not)” value is recorded as “Binding” and the “affinity / binding response compared to AF.ab9” value is on record as “the binding response decreased”.

For “PNSGGGGSYDPETGTWPQWITLTITY (Synthetic IgG binding peptide) [AF.ab31]”, in assay [1], the “Non-native CH1-CL domain (whether affinity was present or not)” value is reported as “Binding” and the “affinity / binding response compared to AF.ab9” value is “substantially equivalent”.

Regarding “PNSGGGGSYDPETGTWPAEIRLILNW [AF.ab9 Q18A]”, the “Non-native CH1-CL domain (whether affinity was present or not)” value in assay [1] is reported as “Binding”.

In the case of “PQEIRLILNW (Synthetic IgG binding peptide) [AF.ab9 arm]”, the “Non-native CH1-CL domain (whether affinity was present or not)” value in assay [1] is “showed affinity; also recorded: Binding”.

As for “PNSGGGGSYDPETGTWPQEIRLIANW [AF.ab9 L24A]”, in assay [1], the “Non-native CH1-CL domain (whether affinity was present or not)” value is “Binding” and the “affinity / binding response compared to AF.ab9” value is on record as “the binding response decreased”.

With “PNSGGGGSYDPETGTWPQEIRLILNW (Synthetic IgG binding peptide) [AF.ab9]”, the “affinity for AF.ab9: pH 2.0-treated Fc” value in the assay on Fc region (Fc region treated with acid buffer pH 2.0, neutralized, 2-0.125 μM) was “No-binding”. Moreover, the “affinity for AF.ab9: Native Fc” value in the assay on Fc region (acid-untreated Fc region 2-0.125 μM) is recorded as “did not show a binding response; also recorded: No-binding”. In addition, the “binding response to the acid-treated Fc region compared with that on the non-native structure of the Fab region” value in the assay on Fc region (pH 2.0-treated Fc versus pH 2.0-treated Fab, SPR) was 1/100. In addition, the “affinity for AF.ab9: pH 2.0-treated IgG” value in the assay on human monoclonal IgG (IgG treated with acid buffer pH 2.0 for 12 hours, neutralized, 2-0.125 μM) is recorded as “strong binding response; also recorded: clear binding responses”. For the same sequence, the “affinity for AF.ab9: pH 3.0-treated IgG” value in the assay with human monoclonal IgG (IgG treated with acid buffer pH 3.0, neutralized, 2-0.125 μM) is recorded as “clear binding responses”. The “affinity for AF.ab9: pH 4.0-treated IgG” value with human monoclonal IgG (IgG treated with acid buffer pH 4.0, neutralized, 2-0.125 μM) is given as “did not show a significant binding response; also recorded: No-binding”. In the assay on human monoclonal IgG (acid-untreated IgG 2-0.125 μM, AF.ab9 immobilized on CM5), the “affinity for AF.ab9: Native IgG” value was “did not show a significant binding response; also recorded: No-binding”. In addition, the “affinity for AF.ab9: pH 2.0-treated Fab” value with Fab region (Fab region treated with acid buffer pH 2.0, neutralized, 2-0.125 μM) is “strong binding response”. The “affinity for AF.ab9: Native Fab” value in the assay with Fab region (acid-untreated Fab region 2-0.125 μM) is “did not show a significant binding response; also recorded: No-binding”. Moreover, the “Non-native CH1-CL domain (whether affinity was present or not)” value in assay [1] was “showed affinity; also recorded: Binding”.
